According to paper doi:10.1101/2024.07.10.602929:

Columns and labels:
Test in all cases: biolayer interferometry, immobilised biotin-peptide
[1] = target: GABARAP (UniProt O95166); conditions: reference: unphosphorylated LIR1 peptide
[2] = target: GABARAPL2 (UniProt P60520); conditions: reference: unphosphorylated LIR1 peptide; sites Y1092
[3] = target: LC3A (UniProt Q9H492); conditions: reference: unphosphorylated LIR1 peptide; sites Y1092
[4] = target: GABARAPL1 (UniProt Q9H0R8); conditions: reference: unphosphorylated LIR1 peptide; sites Y1092
[5] = target: LC3B (UniProt Q9GZQ8); conditions: reference: unphosphorylated LIR1 peptide; sites Y1092

## EGFR LIR1, 1076-1099 (from UniProt P00533) pS1081 LIR1 peptide
[1]; sites S1081
  fold change: stronger

## EGFR LIR1, 1076-1099 (from UniProt P00533) pS1081/pT1085 LIR1 peptide
[1]; sites S1081,T1085
  fold change: stronger

## EGFR LIR1, 1076-1099 (from UniProt P00533) pT1085 LIR1 peptide
[1]; sites T1085
  fold change: stronger

## EGFR LIR1, 1076-1099 (from UniProt P00533) pY1092 LIR1 peptide
[2]
  binding against the reference: same
[3]
  binding against the reference: same
[1]; sites Y1092
  binding against the reference: same
[4]
  binding against the reference: same
[5]
  binding against the reference: same
